Experimental data: the supplement of paper PMC10567573

B1: PPP2R2B (parent)
chain: PSNRSFFSEIISSISDVKFSHSGR

Variants of: B1
Test: protein stability index of a GFP-peptide fusion (GPS, HEK-293T) (PSI 1-6); higher = more stable
Conditions: c terminus: a fixed tail appended
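Further: lentivirally expressed fusions sorted by FACS into six bins by GFP to DsRed ratio, PSI derived from sequencing read proportions per bin multiplied by bin number.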

Variant	protein stability index
PSNRSNFSEIISSISDVKFSHSGR [F6N]	2.9
PSNRSPFSEIISSISDVKFSHSGR [F6P]	3.02
PSNRSCFSEIISSISDVKFSHSGR [F6C]	2.38
PSNRSEFSEIISSISDVKFSHSGR [F6E]	3.22
PSNRSMFSEIISSISDVKFSHSGR [F6M]	2.76
PSNRSRFSEIISSISDVKFSHSGR [F6R]	3.02
PSNRSIFSEIISSISDVKFSHSGR [F6I]	2.81
PSNRSTFSEIISSISDVKFSHSGR [F6T]	3.4
PSNRSSFSEIISSISDVKFSHSGR [F6S]	3.07
PSNRSYFSEIISSISDVKFSHSGR [F6Y]	2.52
PSNRSGFSEIISSISDVKFSHSGR [F6G]	3.31
PSNRSWFSEIISSISDVKFSHSGR [F6W]	2.32
PSNRSAFSEIISSISDVKFSHSGR [F6A]	3.05
PSNRSQFSEIISSISDVKFSHSGR [F6Q]	2.89
PSNRSVFSEIISSISDVKFSHSGR [F6V]	2.66
PSNRSDFSEIISSISDVKFSHSGR [F6D]	3.53
PSNRSHFSEIISSISDVKFSHSGR [F6H]	2.99
PSNRSKFSEIISSISDVKFSHSGR [F6K]	2.99
PSNRSLFSEIISSISDVKFSHSGR [F6L]	2.39
PSNRSFYSEIISSISDVKFSHSGR [F7Y]	2.51
PSNRSFTSEIISSISDVKFSHSGR [F7T]	2.79
PSNRSFESEIISSISDVKFSHSGR [F7E]	3.69
PSNRSFWSEIISSISDVKFSHSGR [F7W]	2.41
PSNRSFQSEIISSISDVKFSHSGR [F7Q]	3.64

Variant	protein stability index
PSNRSFRSEIISSISDVKFSHSGR [F7R]	3.32
PSNRSFCSEIISSISDVKFSHSGR [F7C]	2.83
PSNRSFPSEIISSISDVKFSHSGR [F7P]	2.87
PSNRSFISEIISSISDVKFSHSGR [F7I]	2.87
PSNRSFNSEIISSISDVKFSHSGR [F7N]	3.48
PSNRSFSSEIISSISDVKFSHSGR [F7S]	4.24
PSNRSFVSEIISSISDVKFSHSGR [F7V]	2.24
PSNRSFDSEIISSISDVKFSHSGR [F7D]	3.56
PSNRSFKSEIISSISDVKFSHSGR [F7K]	3.26
PSNRSFGSEIISSISDVKFSHSGR [F7G]	3.42
PSNRSFMSEIISSISDVKFSHSGR [F7M]	2.79
PSNRSFLSEIISSISDVKFSHSGR [F7L]	2.25
PSNRSFHSEIISSISDVKFSHSGR [F7H]	3.32
PSNRSFASEIISSISDVKFSHSGR [F7A]	3.38
VSNRSFFSEIISSISDVKFSHSGR [P1V]	1.72
QSNRSFFSEIISSISDVKFSHSGR [P1Q]	2.4
RSNRSFFSEIISSISDVKFSHSGR [P1R]	2.34
TSNRSFFSEIISSISDVKFSHSGR [P1T]	2.39
YSNRSFFSEIISSISDVKFSHSGR [P1Y]	2.95
SSNRSFFSEIISSISDVKFSHSGR [P1S]	2.21
MSNRSFFSEIISSISDVKFSHSGR [P1M]	2.24
NSNRSFFSEIISSISDVKFSHSGR [P1N]	2.42
WSNRSFFSEIISSISDVKFSHSGR [P1W]	1.83
PSNRFFFSEIISSISDVKFSHSGR [S5F]	2.54

Variant	protein stability index
PSNRDFFSEIISSISDVKFSHSGR [S5D]	2.46
PSNRQFFSEIISSISDVKFSHSGR [S5Q]	2.42
PSNRCFFSEIISSISDVKFSHSGR [S5C]	1.65
PSNRGFFSEIISSISDVKFSHSGR [S5G]	2.59
PSNRYFFSEIISSISDVKFSHSGR [S5Y]	2.04
PSNRWFFSEIISSISDVKFSHSGR [S5W]	2.1
PSNRNFFSEIISSISDVKFSHSGR [S5N]	2.36
PSNRRFFSEIISSISDVKFSHSGR [S5R]	2.64
PSNRPFFSEIISSISDVKFSHSGR [S5P]	2.88
PSNRAFFSEIISSISDVKFSHSGR [S5A]	2.31
PSNRHFFSEIISSISDVKFSHSGR [S5H]	2.91
PSNRLFFSEIISSISDVKFSHSGR [S5L]	2.13
PSNREFFSEIISSISDVKFSHSGR [S5E]	2.9
PSNRVFFSEIISSISDVKFSHSGR [S5V]	1.96
PSNRIFFSEIISSISDVKFSHSGR [S5I]	1.91
PSNRKFFSEIISSISDVKFSHSGR [S5K]	2.17
PSNRMFFSEIISSISDVKFSHSGR [S5M]	2.65
PSNRTFFSEIISSISDVKFSHSGR [S5T]	2.31
PCNRSFFSEIISSISDVKFSHSGR [S2C]	2.4
PDNRSFFSEIISSISDVKFSHSGR [S2D]	2.85
PHNRSFFSEIISSISDVKFSHSGR [S2H]	2.44
PINRSFFSEIISSISDVKFSHSGR [S2I]	2.02
PYNRSFFSEIISSISDVKFSHSGR [S2Y]	2.64
PQNRSFFSEIISSISDVKFSHSGR [S2Q]	2.45

Variant	protein stability index
PKNRSFFSEIISSISDVKFSHSGR [S2K]	1.92
PWNRSFFSEIISSISDVKFSHSGR [S2W]	2.18
PNNRSFFSEIISSISDVKFSHSGR [S2N]	2.29
PANRSFFSEIISSISDVKFSHSGR [S2A]	2.54
PLNRSFFSEIISSISDVKFSHSGR [S2L]	1.95
PENRSFFSEIISSISDVKFSHSGR [S2E]	2.55
PTNRSFFSEIISSISDVKFSHSGR [S2T]	2.44
PPNRSFFSEIISSISDVKFSHSGR [S2P]	2.65
PRNRSFFSEIISSISDVKFSHSGR [S2R]	2.61
PGNRSFFSEIISSISDVKFSHSGR [S2G]	2.66
PVNRSFFSEIISSISDVKFSHSGR [S2V]	2.29
PMNRSFFSEIISSISDVKFSHSGR [S2M]	2.17
PFNRSFFSEIISSISDVKFSHSGR [S2F]	1.99
PSNRSFFQEIISSISDVKFSHSGR [S8Q]	2.33
PSNRSFFDEIISSISDVKFSHSGR [S8D]	2.32
PSNRSFFYEIISSISDVKFSHSGR [S8Y]	1.91
PSNRSFFAEIISSISDVKFSHSGR [S8A]	1.91
PSNRSFFEEIISSISDVKFSHSGR [S8E]	2.57
PSNRSFFREIISSISDVKFSHSGR [S8R]	2.33
PSNRSFFIEIISSISDVKFSHSGR [S8I]	2.84
PSNRSFFPEIISSISDVKFSHSGR [S8P]	2.69
PSNRSFFFEIISSISDVKFSHSGR [S8F]	2.11
PSNRSFFNEIISSISDVKFSHSGR [S8N]	2.44
PSNRSFFLEIISSISDVKFSHSGR [S8L]	2.04

Variant	protein stability index
PSNRSFFMEIISSISDVKFSHSGR [S8M]	2.43
PSNRSFFCEIISSISDVKFSHSGR [S8C]	1.7
PSNRSFFHEIISSISDVKFSHSGR [S8H]	2.31
PSNRSFFTEIISSISDVKFSHSGR [S8T]	2.62
PSNRSFFVEIISSISDVKFSHSGR [S8V]	1.52
PSNRSFFGEIISSISDVKFSHSGR [S8G]	2.41
PSNRSFFKEIISSISDVKFSHSGR [S8K]	2.36
PSNRSFFWEIISSISDVKFSHSGR [S8W]	1.98
PSNRSFFSEAISSISDVKFSHSGR [I10A]	3.33
PSNRSFFSEMISSISDVKFSHSGR [I10M]	2.62
PSNRSFFSESISSISDVKFSHSGR [I10S]	3.09
PSNRSFFSENISSISDVKFSHSGR [I10N]	3.09
PSNRSFFSEPISSISDVKFSHSGR [I10P]	3.44
PSNRSFFSEGISSISDVKFSHSGR [I10G]	3.39
PSNRSFFSEEISSISDVKFSHSGR [I10E]	3.64
PSNRSFFSEVISSISDVKFSHSGR [I10V]	2.83
PSNRSFFSECISSISDVKFSHSGR [I10C]	2.91
PSNRSFFSEDISSISDVKFSHSGR [I10D]	3.13
PSNRSFFSETISSISDVKFSHSGR [I10T]	3.37
PSNRSFFSEKISSISDVKFSHSGR [I10K]	3.11
PSNRSFFSEQISSISDVKFSHSGR [I10Q]	3.06
PSNRSFFSERISSISDVKFSHSGR [I10R]	2.79
PSNRSFFSEFISSISDVKFSHSGR [I10F]	2.43
PSNRSFFSEYISSISDVKFSHSGR [I10Y]	3.01

Variant	protein stability index
PSNRSFFSEHISSISDVKFSHSGR [I10H]	2.98
PSNRSFFSELISSISDVKFSHSGR [I10L]	1.79
PSNRSFFSEWISSISDVKFSHSGR [I10W]	2.33
PSNRSFFSTIISSISDVKFSHSGR [E9T]	2.17
PSNRSFFSQIISSISDVKFSHSGR [E9Q]	2.31
PSNRSFFSHIISSISDVKFSHSGR [E9H]	1.99
PSNRSFFSKIISSISDVKFSHSGR [E9K]	2.23
PSNRSFFSWIISSISDVKFSHSGR [E9W]	1.91
PSNRSFFSDIISSISDVKFSHSGR [E9D]	2.44
PSNRSFFSAIISSISDVKFSHSGR [E9A]	2.12
PSNRSFFSIIISSISDVKFSHSGR [E9I]	3.63
PSNRSFFSVIISSISDVKFSHSGR [E9V]	2.15
PSNRSFFSNIISSISDVKFSHSGR [E9N]	2.36
PSNRSFFSCIISSISDVKFSHSGR [E9C]	2.03
PSNRSFFSLIISSISDVKFSHSGR [E9L]	2.58
PSNRSFFSMIISSISDVKFSHSGR [E9M]	1.47
PSNRSFFSPIISSISDVKFSHSGR [E9P]	2.45
PSNRSFFSYIISSISDVKFSHSGR [E9Y]	1.95
PSNRSFFSSIISSISDVKFSHSGR [E9S]	2.26
PSNRSFFSRIISSISDVKFSHSGR [E9R]	2.2
PSNRSFFSFIISSISDVKFSHSGR [E9F]	1.63
PSNRSFFSGIISSISDVKFSHSGR [E9G]	2.64
PSNLSFFSEIISSISDVKFSHSGR [R4L]	2.41
PSNGSFFSEIISSISDVKFSHSGR [R4G]	3.02

Variant	protein stability index
PSNDSFFSEIISSISDVKFSHSGR [R4D]	3.49
PSNESFFSEIISSISDVKFSHSGR [R4E]	2.81
PSNTSFFSEIISSISDVKFSHSGR [R4T]	2.48
PSNMSFFSEIISSISDVKFSHSGR [R4M]	2.1
PSNSSFFSEIISSISDVKFSHSGR [R4S]	2.8
PSNQSFFSEIISSISDVKFSHSGR [R4Q]	2.66
PSNPSFFSEIISSISDVKFSHSGR [R4P]	2.8
PSNYSFFSEIISSISDVKFSHSGR [R4Y]	1.86
PSNFSFFSEIISSISDVKFSHSGR [R4F]	1.81
PSNVSFFSEIISSISDVKFSHSGR [R4V]	2.47
PSNCSFFSEIISSISDVKFSHSGR [R4C]	1.83
PSNISFFSEIISSISDVKFSHSGR [R4I]	2.79
PSNHSFFSEIISSISDVKFSHSGR [R4H]	2.1
PSNKSFFSEIISSISDVKFSHSGR [R4K]	2.54
PSNNSFFSEIISSISDVKFSHSGR [R4N]	2.2
PSNASFFSEIISSISDVKFSHSGR [R4A]	2.64
PSNWSFFSEIISSISDVKFSHSGR [R4W]	1.4
PSNRSFFSEICSSISDVKFSHSGR [I11C]	4.01
PSNRSFFSEIESSISDVKFSHSGR [I11E]	3.59
PSNRSFFSEIGSSISDVKFSHSGR [I11G]	3.36
PSNRSFFSEIFSSISDVKFSHSGR [I11F]	4.67
PSNRSFFSEIKSSISDVKFSHSGR [I11K]	3
PSNRSFFSEIASSISDVKFSHSGR [I11A]	3.34
PSNRSFFSEIDSSISDVKFSHSGR [I11D]	3.46

Variant	protein stability index
PSNRSFFSEIHSSISDVKFSHSGR [I11H]	3.46
PSTRSFFSEIISSISDVKFSHSGR [N3T]	2.14
PSDRSFFSEIISSISDVKFSHSGR [N3D]	2.32
PSWRSFFSEIISSISDVKFSHSGR [N3W]	2.75
PSCRSFFSEIISSISDVKFSHSGR [N3C]	2.19
PSLRSFFSEIISSISDVKFSHSGR [N3L]	2.17
PSQRSFFSEIISSISDVKFSHSGR [N3Q]	2.4
PSFRSFFSEIISSISDVKFSHSGR [N3F]	2.06
PSERSFFSEIISSISDVKFSHSGR [N3E]	2.03
PSIRSFFSEIISSISDVKFSHSGR [N3I]	1.83
PSYRSFFSEIISSISDVKFSHSGR [N3Y]	2.55
PSVRSFFSEIISSISDVKFSHSGR [N3V]	1.74
PSRRSFFSEIISSISDVKFSHSGR [N3R]	2.35
PSKRSFFSEIISSISDVKFSHSGR [N3K]	2.12
PSMRSFFSEIISSISDVKFSHSGR [N3M]	2.13
PSPRSFFSEIISSISDVKFSHSGR [N3P]	2.49
PSSRSFFSEIISSISDVKFSHSGR [N3S]	2.57
PSARSFFSEIISSISDVKFSHSGR [N3A]	2.27
PSGRSFFSEIISSISDVKFSHSGR [N3G]	2.19
PSHRSFFSEIISSISDVKFSHSGR [N3H]	2.72
